Peptide text beside a SMILES is read from it. * marks the point of attachment. X1 = O=C(c1nn(Cc2ccc(Cl)cc2Cl)c2ccccc12)*; Cyclenylacetyl = O=C(CN1CCNCCNCCNCC1)*; NBD = O=[N+]([O-])c1ccc(*)c2nonc12; βAla = NCCC(=O)O
How the values were obtained:
MCF-7 cells [1] = assay: MMP depolarization (JC-1 probe, CLSM); type: cell-based; conditions: 50 μM, 24 h, serum-free medium, JC-1 10 µg/mL 30 min
Description: MCF-7 cancer cells with a density of 2 × 10^5 cells/mL were cultured in confocal cuvettes under 5% CO2 at 37 °C. After the number of anchorage-dependent cells reached up to 70%, the cells were incubated with a replaceable serum-free medium containing different forms of the drug (50 μM) for 24 h. This was followed by washing away the drug that was not absorbed and staining with 1 mL JC-1 probe (10 µg/mL) for 30 min in dark. After washing with PBS for three times, the cells were imaged by CLSM to examine the fluorescence intensity of the J-monomers and the J-aggregates.

MCF-7 cells [2] = assay: CCK-8 cytotoxicity assay; type: cell-based; conditions: 200 μM, 48 h
Description: Circular dichroism (CD) spectra
The secondary structure of LND- Pep-cyclen hydrogel and NBD- Pep-cyclen hydrogel were monitored by a circular dichroism (CD) spectrophotometer (BioLogic, MOS-450, France) system. The self-assembled hydrogel was added into a 0.1 cm quartz spectrophotometer cell (20- C/Q/0.1), then the CD signals were recorded in the 180- 280 nm scanning wavelength range. The final spectrogram was obtained after subtracting the PBS solvent background.
Mammary carcinoma cancer cells (MCF-7 and 4T1), and mouse fibroblast cells normal cells (L929) were all maintained in our lab. These cells were cultured in DMEM (MCF-7) and RPMI 1640 medium (4T1 and L929) supplemented with 10%
FBS and 1% penicillin-streptomycin in a humidified incubator maintained at 37 °C and 5% CO2, respectively.
Cytotoxicity and apoptosis analysis
All kinds of cells were seeded in 96-well plates at a density of 5000 cells per well. After 24 h incubation, the cells were treated with a series of pre-determined doses of LND-Pep-cyclen nanofibers, free LND, free cyclen, mixture of free LND and cyclen molecules for 48 h. After adding 10 μL CCK-8 solution to each well, the cells were incubated at 37 °C for another 4 h. OD450 was measured using a Thermo Scientific™ Varioskan™ LUX (Thermo, CA, USA), and then the cell viability values

MCF-7 cells [3] = assay: Colony formation assay / radio-sensitization; type: cell-based; conditions: 10 μM, 12 h, γ-rays 0-6 Gy, multi-target single-hit model, n = 3
Description: MCF-7 cells (1,000/well) were seeded in six-well plates and incubated with different forms of drugs at a concentration of 10 μM after 12 h. Subsequently, they were irradiated with γ-rays at doses of 0, 2, 4, and 6 Gy at 36 h. Following this, the cells were continuously cultured with a fresh drug-free medium in an incubator for another 5-8 days. The fixed colonies were then stained using crystal violet (0.25%, ethanol) for subsequently counting the number of colonies, and evaluating the colony inhibition ability of each treatment. Only colonies containing >50 cells were counted and survival curves were plotted with Origin. Furthermore, the SER value was used to compare the efficiencies of the different drugs in improving the sensitivity of the MCF-7 cells to radiotherapy. The SER was determined by a classical multi-target single-hit model using the following equation:
S = 1 - (1 - e ^-D/D0)^n (1)
where S is the survival fraction, D is the radiation dose, D0 is the mean lethal dose, and n is the extrapolation number. D0 and n were calculated using the“GraphPad Prism” software (version 8.0). The final survival fraction curve of each group was obtained by a nonlinear fitting using Origin 2018, and the SER was expressed using the following formulae:
SER = Dq (control group)/Dq (treated group (2)

MCF-7 cells [4] = assay: ATP content (luminescent assay); type: cell-based; conditions: 50 μM, 24 h, per cell, control = 100%, mean n = 5
Description: MCF-7 cells with a density of 5000 cells/well were seeded in 96-well plates, and then were cultured at the incubators for 24 h at 37 °C under 5% CO2. After co-incubation with different forms of drugs for another 24 h, the growth medium was removed, and the wells were washed twice with PBS. The cell number of each group was counted before all the measurements. After dissociation and centrifugation, the liquid supernatant was collected for the following analysis of the HK activity and the lactate content. The hexokinase (HK) activity of the cells in each group was determined by the OD340 absorbance according to the specification of the HK activity assay kit (Solarbio, BC0745). The intracellular lactate content was detected using an L-lactate assay kit (Promega, J5021) and depended on the OD565 absorbance. A luminescent ATP detection assay kit (Abcam, ab113849) was used to analyze the quantity of ATP. All the data were shown as the mean value in per cell of each group.

MCF-7 cells [5] = assay: Annexin V-FITC/PI apoptosis flow cytometry; type: cell-based; conditions: 50 μM, 48 h, Figure 2D
Description: of different groups at different doses were calculated. For apoptosis assay, MCF -7 and L929 cells were cultured in 6-well plates at a density of 2 × 10^5 cells per well, then were treated with different forms of drug for 48 h. Afterwards, cells were harvested at 1000 rpm for 5 min and then washed with ice-cold PBS twice. Upon being suspended in 100 μL 1× binding buffer, the samples were incubated with 5 μL of FITC-Annexin- V and 5 μL of PI for 15 min at room temperature in the dark. Finally, the cells were added in 100 μL 1× binding buffer blending gently and analyzed by flow cytometry (Becton Dickinson, NJ, USA) within 1 h.
MCF-7 cancer cells and L929 normal cells with a density of 1×10^5 cells/mL were cultured in confocal chambers and 6-well plates at 37 °C, respectively. After 70% confluence, the cells were treated with fresh medium which contained the same concentrations of LND-Pep-cyclen nanofibers, LND, cyclen, mixture of free LND and cyclen molecules for 12 h. Then, followed by washing twice with PBS and incubated with 1 mL DCFH-DA (10 μM) at 37 °C for 30 min in the dark. The cells in 6-well plates were harvested, washed, re- suspended and then loaded on flow cytometry for quantitate analysis. […] Excitation at 488 nm and signal collection at 525 ± 10 nm for DCFH-DA fluorescence. […]

MCF-7 tumors = assay: In vivo anti-tumor evaluation; conditions: MCF-7 tumor bearing nude mice, single i.v. injection, 5 mg/kg LND equivalent, day 14, vs PBS control
Description: (§1) MCF-7 cells (1×10^7 cells per mouse) were subcutaneously injected into the breast regions of six-week-old nude mice to establish the tumor model. When the tumor volume grew to approximately 100 mm^3, all the mice were randomly divided into eight groups with seven mice in each group. Except for the control groups, all groups were intravenously administrated with 200 μL of LND-Pep-cyclen nanofibers, free LND, and mixture of free LND and free cyclen (5 mg/kg LND equivalent and 2 mg/kg cyclen equivalent), respectively. After 12 hours, the mice in the chemo-radiotherapy group were exposed to 6 Gy γ-rays. To evaluate the therapeutic efficacy, the tumor size and the body weight were recorded daily. The tumor volumes were measured using a vernier caliper and then calculated using the formula: (width^2×length)/2. On the 14th day, all the mice were euthanized when the tumor volume in the PBS control group reached approximately 1500 mm^3. The tumors and normal tissues including heart, liver, spleen, lung and kidney in each group were carefully collected, photographed, and then fixed in 4% form aldehyde for histological analysis.

[6] = H&E histology of major organs after treatment; type: in vivo, nude mice; conditions: single administration, compared with control group (Figure S22)
Description: as §1

[7] = Bio-compatibility evaluation (hematology, blood biochemistry); type: in vivo; conditions: BALB/c mice, 20 mg/kg i.v. at day 0, 7, 14, 21 (four injections), n = 5
Description: Cambridge, UK), anti-Bcl-2 (1:1000, Abcam, Cambridge, UK), anti-smac and anti-GAPDH antibody. After washing with 1 ×TBST, membranes were incubated with corresponding secondary antibody for 1 h at room temperature. The membranes were washed 3 times by 1 ×TBST and illuminated by an enhanced chemiluminescent (ECL) kit (Pierce™ ECL Western Blotting Substrate, Thermo Scientific, Rockford, IL, USA) on a Bio- Rad film (Sigma-Aldrich, St. Louis, MO, USA).
Bio-compatibility evaluation
Six-week-old BALB/c mice were randomly assigned to two groups and intravenously administrated with 200 μL of LND-Pep-cyclen nanofibers (20 mg/kg) and PBS at 0 day, 7 day, 14 day, 21 day. All the mice were sacrificed at the last time point, followed by collecting the whole body blood for the hematology and blood

MCF-7 cells [8] = type: cell-based
Description: To confirm our hypothesis, we subsequently used a fluorescent molecule of 7-nitrobenzo-2-oxa-1,3-diazole (NBD), to replace LND, resulting in another peptide conjugate of NBD-GFFYK-cyclen (NBD-Pep-cyclen). […] Therefore, the NBD-Pep-cyclen conjugate could be very qualified as a substitute for LND-Pep-cyclen to verify its mitochondrial targeting performance. After incubation with MCF-7 cells for 4 hours, the cellular distribution of the NBD-Pep-cyclen nanofibers was investigated. […] The endocytosis mechanism for the cellular uptake was investigated using several well-established endocytotic inhibitors. […] In contrast, the addition of NaN3 (an inhibitor of energy-dependent endocytosis) and chlorpromazine (an inhibitor of clathrin-mediated endocytosis) reduced the uptake to less than 50%. […]
Figure S9 (A) CLSM images of MCF-7 cells treated with NBD-Pep-cyclen
nanofibers in the absence and presence of endocytotic inhibitors. […]

MCF-7 and L929 cells = assay: Flow cytometry of NBD accumulation in cancer versus normal cells; type: cell-based; conditions: 50 μM, 4 h, flow cytometry MFI, n = 3

**Q.** What does the source list for `O=C(O)c1nn(Cc2ccc(Cl)cc2Cl)c2ccccc12` [LND, Lonidamine]?
**A.** MMP depolarization (MCF-7 cells [1]): very limited effect; Cell survival rate (MCF-7 cells [2]): 50%; SER (sensitization enhancement ratio) (MCF-7 cells [3]): 1.78; ATP content, of control (MCF-7 cells [4]): 60%; Cells in lower right quadrant (PI / Annexin V-FITC plot); early apoptosis rate (MCF-7 cells [5]): 1.45%; Tumor growth / final tumor volume, chemotherapy only (MCF-7 tumors): barely inhibit the tumor growth

**Q.** Which “Histological changes in liver, spleen, kidney, heart, lung (H&E)” value [6] does the source give for `O=C(CN1CCNCCNCCNCC1)NCCCC[C@H](NC(=O)[C@H](Cc1ccc(O)cc1)NC(=O)[C@H](Cc1ccccc1)NC(=O)[C@H](Cc1ccccc1)NC(=O)CNC(=O)c1nn(Cc2ccc(Cl)cc2Cl)c2ccccc12)C(=O)O` [LND-Pep-cyclen] (X1-GFFYK(Cyclenylacetyl)-OH) here?
**A.** The value was “no appreciable inflammatory damage and tissue damage”.

**Q.** And the “Liver and kidney indices (ALT, AST, TBIL, BUN)” value ([7]; vs control)?
**A.** Its value is “normal with no relevant difference”.

**Q.** What about the Blood routine values ([7]; vs untreated control) of the same molecule?
**A.** Its Blood routine values is “no apparent variations”.

**Q.** With `O=C(CCNc1ccc([N+](=O)[O-])c2nonc12)NCC(=O)N[C@@H](Cc1ccccc1)C(=O)N[C@@H](Cc1ccccc1)C(=O)N[C@@H](Cc1ccc(O)cc1)C(=O)N[C@@H](CCCCNC(=O)CN1CCNCCNCCNCC1)C(=O)O` [NBD-Pep-cyclen] ({NBD-βAla}-GFFYK(Cyclenylacetyl)-OH) as the molecule, how does the “Cellular uptake in presence of NaN3” value (MCF-7 cells [8]) read?
**A.** The value was “less than 50%”.

**Q.** What about the “Cellular uptake in presence of chlorpromazine” value (MCF-7 cells [8]) of the same molecule?
**A.** The value was “less than 50%”.

**Q.** What about the “Cellular uptake in presence of nystatin” value (MCF-7 cells [8]) of the same molecule?
**A.** Its value is “barely affected”.

**Q.** And the “Cellular uptake in presence of wortmannin” value (MCF-7 cells [8])?
**A.** Its value is “barely affected”.

**Q.** What about the “NBD fluorescence intensity in MCF-7 cells relative to L929 cells” value (MCF-7 and L929 cells) of the same molecule?
**A.** Its value is “more than two-folds”.

Source: paper PMC8771563, “Mitochondrion-targeted supramolecular “nano-boat” simultaneously inhibiting dual energy metabolism for tumor selective and synergistic chemo-radiotherapy” (Theranostics, 2022)
